Measured values from the supplement of paper PMC10567573.

B1: PRIM1 (parent)
chain: CCSSADICPKCWTLMTMAIRIIDR
B2: TRIM15 (parent)
chain: LLARLRELEQQIWKERDEYITKVS

Variants of: B1
Test: protein stability index of a GFP-peptide fusion (GPS, HEK-293T) (PSI 1-6); higher = more stable
Details: c terminus: a fixed tail appended
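Further: lentivirally expressed fusions sorted by FACS into six bins by GFP to DsRed ratio, PSI derived from sequencing read proportions per bin multiplied by bin number.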

Protein stability index: each site, then its substitutions
I19: N 2.89 | S 2.6 | A 1.93 | E 2.48
M15: K 2.45 | Y 1.63 | V 2.96 | S 1.95 | D 2.03 | N 2.29 | E 2.01
A18: T 1.56 | L 2.3 | Y 1.34 | R 1.94
R20: I 1.33 | K 1.19 | D 1.5 | C 1.96 | A 1.93 | E 1.83
C11: F 2.58 | I 2.4 | W 2.84
D6: C 1.62 | P 2.13 | N 1.86 | R 1.51
K10: L 2.14 | D 3.36
I21: V 1.67 | G 2.2 | C 1.94 | L 1.49 | M 1.89 | K 2.35 | E 1.58 | F 1.39 | R 2.75
C2: E 1.83 | Y 1.96 | M 2.48 | R 1.91
W12: H 2.19 | C 1.83 | M 2.02 | D 1.71 | N 1.83 | Y 2.48
A5: T 2.98 | P 1.62 | N 1.54 | W 2.15
L14: S 2.39 | V 1.8 | R 2.18 | T 2.89
S3: Q 2.08 | W 1.42 | R 1.9
D23: T 1.82 | C 2.19 | F 1.78 | S 2.96 | H 1.69 | I 1.84
I22: E 2.57 | S 1.6 | H 1.9 | K 2.94 | G 2.44 | V 2.34
S4: C 2.72 | M 2.97 | E 2.11 | N 1.72
R24: N 1.8 | M 2.12 | L 1.91 | G 1.81
T16: A 2.23 | L 2 | S 1.49 | N 2.37 | P 2.09 | E 1.48 | R 1.95
P9: E 1.33 | W 1.35
C1: S 1.79 | G 1.88 | K 1.61
T13: E 1.88 | C 2.04 | P 1.3 | M 1.59
I7: S 1.72 | P 2.07 | W 2.16 | G 1.98
M17: F 1.94 | V 1.6 | Q 2.54 | P 2.29 | I 1.94 | W 2.19 | R 1.7 | T 2.09

Variants of: B2
Test: as above
Details: c terminus: a fixed tail appended

Protein stability index: each site, then its substitutions
E9: F 3.06 | P 2.29 | Q 1.07 | K 1.62 | W 1.69 | L 1.8 | I 1.96 | Y 1.59
Y19: N 1.91 | S 1.71 | P 1.55 | L 1.98 | T 1.67
L1: R 1.87 | A 1.79 | N 3.22 | M 1.03 | F 1.55 | G 1.55 | K 2.05 | H 2.19 | Y 2.35 | D 2.31 | P 2.37 | Q 2.83 | E 2.2 | S 2.12
E7: Q 1.61 | P 2.57 | I 1.03 | D 1.6 | Y 3.38 | R 1.07
K14: F 1.68 | H 1.67 | L 2.06 | T 2.85 | E 1.05 | N 1 | A 1.24 | P 2.2 | I 2.26
T21: H 1.49 | W 2.63 | D 1.32 | P 2.59 | I 2.45 | A 2.07 | Q 2.41 | Y 2.02 | L 2.39 | N 1.7
V23: A 1.5 | Y 2.4 | D 3.9 | H 1.86 | Q 1.71 | I 1.86 | S 2.25 | N 1.64 | W 1.7 | C 2.1 | R 1.57 | T 1.63
Q10: N 2.35 | W 3.11 | M 3.32 | F 3.2 | D 2.21 | G 1.58 | T 1.09 | R 2.02 | I 2.65 | K 2.02
E18: N 2.08 | M 2.33 | G 1.81 | Q 1.18
L8: R 1.44 | G 2.9 | K 3.04 | W 1.62 | A 1.14 | C 1.49 | N 2.03 | H 2.12 | Y 2.22 | I 2.51 | P 2.55
I20: C 1.08 | K 2.1 | F 3.15 | N 1.63 | G 2.17 | H 2.12 | A 1.3 | R 2.91 | D 2.11 | Y 3.1 | S 2.18 | P 1.6 | L 1.33 | M 1.71
I12: W 1.43 | F 2.15 | N 1.24 | Q 2.34 | M 3.6 | H 1.8 | D 2.75 | R 2.21 | P 1.77 | S 1.35 | Y 2.13 | L 1.67
Q11: R 2.29 | A 1.98 | P 1.62 | G 1.41 | E 1.01 | D 2.36 | H 1.98 | V 2.12 | S 2.51
D17: T 2.08 | Y 3.07 | N 1 | E 1.78 | L 1.04 | Q 3.32
W13: P 1.81 | Y 1.51 | T 1.69 | L 1.71 | F 2.83 | V 1.96 | K 2.24 | G 2.31 | A 1.52 | Q 2.46 | C 2.68 | R 1.77 | I 1.32
L5: I 2.98 | F 2.17 | S 3.44 | Q 2.64 | T 2.44 | G 2.6 | M 1.83 | E 2.96 | A 1.91 | V 2.95 | W 1.34 | N 2.43 | D 2.44 | R 2.28 | P 2.65 | H 2.72
R16: E 2 | H 1 | L 3.68 | K 1.92 | A 1.78 | C 2 | Q 1.58 | M 1.61
E15: I 1.42 | A 1.28 | Q 1.47 | G 1.18 | L 2.15 | F 2.15 | R 1.05
L2: Y 4.12 | M 1.49 | E 1.38 | V 1.74 | C 1.6 | T 2.56 | Q 1.22 | W 2.23 | G 1.9
A3: P 1.99 | D 2.18 | Q 1.9 | S 1.69 | H 1.46 | L 2 | E 3.27 | M 2.34 | F 2.9
R6: K 2.13 | E 1.82 | P 2.44 | D 1.79 | V 3.95 | T 1.76 | Q 1.44
R4: G 2.56 | M 2.36 | F 1.73 | Y 1.92 | N 1.58 | P 1.6 | Q 1.74 | S 1.78
K22: D 1.97 | W 2.06 | G 2.25 | V 1.97 | A 2.38 | N 1.38 | C 1.94 | R 2.46 | T 1.43
S24: C 2.05 | V 3 | Y 2.94 | M 2.12 | R 1.93 | L 1.95 | F 1.51 | E 1.38 | T 1.31 | D 3.02
